{
  "source": "patent US7228238B2",
  "about": "“Algorithmic design of peptides for binding and/or modulation of the functions of receptors and/or other proteins” (Cielo Institute, Inc., priority 2000, dated 2007)",
  "key": {"[1]": {"molecular_target": "T1, human long isoform D2DA receptor (Homo sapiens, UniProt P14416)", "T1 sequence (P14416 whole entry, canonical isoform)": "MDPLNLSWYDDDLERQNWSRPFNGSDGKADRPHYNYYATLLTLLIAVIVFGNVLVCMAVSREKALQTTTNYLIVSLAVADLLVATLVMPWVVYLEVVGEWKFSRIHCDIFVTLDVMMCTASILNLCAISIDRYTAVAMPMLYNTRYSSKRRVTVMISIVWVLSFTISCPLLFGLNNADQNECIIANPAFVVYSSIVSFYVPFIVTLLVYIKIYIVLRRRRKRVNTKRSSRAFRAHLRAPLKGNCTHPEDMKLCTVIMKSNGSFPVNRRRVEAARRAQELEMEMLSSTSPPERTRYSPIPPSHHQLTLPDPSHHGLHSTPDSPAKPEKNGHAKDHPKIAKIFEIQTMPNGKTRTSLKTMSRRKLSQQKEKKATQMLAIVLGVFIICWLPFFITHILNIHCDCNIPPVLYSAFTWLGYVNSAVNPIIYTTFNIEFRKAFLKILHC", "experiment": "external acidification rate (EAR) by microphysiometry, response to dopamine, D2DA receptor-transfected mouse LtK cell system", "settings": "for MODULATORY EFFECT LtK: significance class of effect on EAR response to dopamine ≈1 μM; for MODULATORY EFFECT LtK / influence on dopamine-induced increment in total milli-pH units (EAR response to dopamine) / DIRECT EFFECT LtK / ρ of one-tailed t-test paired within chamber, peptide influence on EAR response to dopamine: peptide 1 μM; for MODULATORY EFFECT LtK / DIRECT EFFECT LtK: D2DA-transfected LtK cells; for influence on dopamine-induced increment in total milli-pH units (EAR response to dopamine) / ρ of one-tailed t-test paired within chamber, peptide influence on EAR response to dopamine: LtK system, dopamine ≈1 μM; for DIRECT EFFECT LtK: significance class of effect on EAR"}, "human NGF receptor": {"tested_on": "human NGF receptor", "experiment": "EAR test system, transformed cell line expressing the NGF receptor, response to NGF", "assay_type": "cell-based", "settings": "for MODULATORY EFFECT: significance class of change in EAR response to NGF; for MODULATORY EFFECT / DIRECT EFFECT: NGF receptor cell line; for DIRECT EFFECT: significance class of change in EAR; for effect on EAR response to NGF: NGF receptor inhibition assay, PC-12 cells", "description": "(§1) Peptides derived from receptor protein systems other than the D2DA receptor were also tested for their effects on their respective receptors. For the human muscarinic M1 receptor, CHO cells were transfected with the muscarinic M1 receptor cDNA derived from a human cDNA library essentially as described by Buckley et al. (Mol. Pharmacol. 1989 35:469–476). Briefly, the coding region of the M1 receptor was obtained from a human cDNA library and cloned into the expression vector pcDNA3 (Invitrogen, San Diego, Calif.). CHO-K1 cells were transformed with the construct, using the calcium phosphate method. Stably expressing transformants were obtained in the presence of 250 μg/ml geneticin. Transformed cell lines expressing the human NGF receptor also were obtained. The effects of the peptides derived by the methods of the present invention on the activities of the corresponding receptors in the transformed cell lines were evaluated in the same manner as described above for the D2DA-targeted algorithmically derived peptides, using the EAR test system.\nThe hydrophobic wavelength of a peptide containing L-amino acids is the same as a peptide containing D-amino acids in which the sequence is inverted. Such “retro-inverso” peptides have been previously described (Chorev, M. and Goodman, M. (1995) Trends Biotechnol. 13:438–445), but their use as mode-matched binding peptides has never before been contemplated. A retro-inverso peptide containing D-amino acids and having the sequence […] was synthesized (SEQ ID NO:97). This sequence of this peptide is inverted from that of peptide of SEQ ID NO:27, used in the NGF receptor inhibition assay. […] The peptide of SEQ ID NO:97 was tested in the same assay as the L-amino acid, forward sequence peptide of SEQ ID NO: 27."}, "[2]": {"molecular_target": "T2, human muscarinic M1 receptor (Homo sapiens, UniProt P11229)", "T2 construct": "expressed in transfected cells; host or cells: CHO-K1 cells; expression vector pcDNA3; calcium phosphate method; geneticin selection", "T2 sequence (P11229 1-460)": "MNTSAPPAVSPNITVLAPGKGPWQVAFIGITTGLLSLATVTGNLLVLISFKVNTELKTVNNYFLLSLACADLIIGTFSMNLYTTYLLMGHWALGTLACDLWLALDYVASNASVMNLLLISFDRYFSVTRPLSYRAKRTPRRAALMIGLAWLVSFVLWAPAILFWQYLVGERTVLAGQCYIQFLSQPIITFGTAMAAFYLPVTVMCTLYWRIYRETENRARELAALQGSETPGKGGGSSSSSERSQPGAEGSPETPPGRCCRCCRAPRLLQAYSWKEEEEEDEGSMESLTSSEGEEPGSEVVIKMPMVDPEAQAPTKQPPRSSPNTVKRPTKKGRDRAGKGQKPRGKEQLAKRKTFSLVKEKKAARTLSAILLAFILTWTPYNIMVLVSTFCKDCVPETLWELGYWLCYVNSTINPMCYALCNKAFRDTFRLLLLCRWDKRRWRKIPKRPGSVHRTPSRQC", "experiment": "EAR test system, response to carbachol, M1 receptor-transfected CHO-K1 cells", "assay_type": "cell-based", "settings": "for MODULATORY EFFECT: significance class of effect on EAR due to carbachol", "description": "as §1"}, "[3]": {"molecular_target": "T1, human long isoform D2DA receptor", "experiment": "external acidification rate (EAR) by microphysiometry, response to dopamine, D2DA receptor-transfected CHO cell system", "settings": "peptide 1 μM; for DIRECT EFFECT CHO: significance class of effect on EAR; for DIRECT EFFECT CHO / MODULATORY EFFECT CHO: D2DA-transfected CHO cells; for MODULATORY EFFECT CHO: significance class of effect on EAR response to dopamine ≈1 μM", "method": "Both cell systems were stably transfected with human long isoform D2DA receptor cDNA, which had been isolated from a human striatal cDNA library, sequenced and subcloned into the expression vector pRC/RSV (Invitrogen). […] Both systems were grown to confluence in DMEM containing 10% FBS. The cells were serum-starved 18–24 hours prior to use, and then assayed for EAR using a microphysiometer (Cytosensor; Molecular Devices, Sunnyvale, Calif.) in low buffering DMEM with 0.1% culture grade BSA.\nThe determination of EAR by microphysiometry involves a proton-sensitive silicon semiconductor photocurrent-driven sensor which measures changes in EAR resulting from effector-evoked alterations in cellular glycolytic and respiratory energy metabolism and/or alterations in sodium-hydrogen exchanges across cellular membranes. Protonic H^+, generated by such energy metabolism or exchanges, neutralizes the charge on the surface of the semiconductor, reducing the photocurrent produced at a rate linearly related to H^+production.\nThe microphysiometer monitors pH in flow-through chambers containing the receptor-transfected cells. Generally, if the cells lines used are adherent cell lines, the cells are seeded into “capsule cups”. If the cell lines are non-adherent cell lines, then the cells are immobilized in a fibrin matrix. For all microphysiometer runs, modified low buffering DMEM containing 0.1% BSA is pumped across the cells at a rate of approximately 100 μL/min, during which time the pH of the microenvironment surrounding the sensor surface is maintained at a relatively constant value. The measurement of the acid output rate of the cells, termed the acidification rate, is made when the fluid flow is periodically halted to allow buildup of acidic metabolites in the chamber, resulting in an alteration in the pH of the fluid. The pH is measured in millivolts, and converted to milli-pH units. The changes in pH are expressed as changes in milli-pH units per minute following the linear, time-dependent buildup of H^+during intermittent periods of pump arrest followed by washout. […] Ligand induced, receptor-mediated increases in cell metabolic and Na^+—H^+membrane regulatory activity is seen as an increase in the acidification rate.\nSmall Kolmogorov-Smirnov distances supported the assumption of normality in all of the data sets, so within chamber-paired, one-tailed t-tests with a significance criterion of ρ=0.05 were used."}, "[4]": {"settings": "CHO cell system, dopamine ≈1 μM"}},
  "data": [
    {"substance": "7 (SHQAWRYKNVNCYVI) [compound 7]", "values": [
      {"measurement": "MODULATORY EFFECT LtK", "setting": "[1]", "result": "*** (***ρ ≦ 0.001)"}
    ]},
    {"substance": "ERNRKPYRPKNKYLL [E . . . PY]", "values": [
      {"measurement": "influence on dopamine-induced increment in total milli-pH units (EAR response to dopamine)", "setting": "[1]", "result": "statistically significant activation"}
    ]},
    {"substance": "23 (DLCRSARSDIEVTEY) [compound 23]", "values": [
      {"measurement": "MODULATORY EFFECT", "setting": "human NGF receptor", "result": "*** (*** ρ ≦ 0.001)"},
      {"measurement": "DIRECT EFFECT", "setting": "human NGF receptor", "result": "** (** 0.001 < ρ ≦ 0.01)"}
    ]},
    {"substance": "ERNRKPLRPKNKYLI [E . . . PL]", "values": [
      {"measurement": "influence on dopamine-induced increment in total milli-pH units (EAR response to dopamine)", "setting": "[1]", "result": "statistically significant activation"}
    ]},
    {"substance": "16 (ISFNKCTWSFERYSL) [compound 16]", "values": [
      {"measurement": "MODULATORY EFFECT", "setting": "[2]", "result": "* (* 0.01 < ρ ≦ 0.05)"}
    ]},
    {"substance": "25 (HYCASADPRIHKNAL) [compound 25]", "values": [
      {"measurement": "MODULATORY EFFECT", "setting": "human NGF receptor", "result": "*** (*** ρ ≦ 0.001)"}
    ]},
    {"substance": "8 (GETAFRYVNCNVYVYI) [compound 8]", "values": [
      {"measurement": "DIRECT EFFECT LtK", "setting": "[1]", "result": "*** (***ρ ≦ 0.001)"},
      {"measurement": "DIRECT EFFECT CHO", "setting": "[3]", "result": "** (**0.001 < ρ ≦ 0.01)"}
    ]},
    {"substance": "H-DIKATEATDIEKGHL-OH [SEQ ID NO:27]", "values": [
      {"measurement": "effect on EAR response to NGF", "setting": "human NGF receptor", "result": "significantly down-regulated"}
    ]},
    {"substance": "H-SHQRWEYKGVNCIVY-OH [SEQ ID NO:1]", "values": [
      {"measurement": "EAR dose response curves", "setting": "[1]; LtK cells, dopamine 10^−8.5M to 10^−5.5M, peptide 10 nM to 3 μM", "result": "asymptotic sigmoidal kinetics, suggestive of positive cooperativity"},
      {"measurement": "influence on dopamine-induced increment in total milli-pH units (EAR response to dopamine)", "setting": "[1]", "result": "significantly potentiated"},
      {"measurement": "ρ of one-tailed t-test paired within chamber, peptide influence on EAR response to dopamine", "setting": "[1]", "result": 0.0009},
      {"measurement": "influence on dopamine-induced increment in total milli-pH units (EAR response to dopamine)", "setting": "[3]; [4]", "result": "significantly potentiated"},
      {"measurement": "ρ of one-tailed t-test paired within chamber, peptide influence on EAR response to dopamine", "setting": "[3]; [4]", "result": "< 0.0001"}
    ]},
    {"substance": "5 (SHTAYHWMSCGKIVI) [compound 5]", "values": [
      {"measurement": "MODULATORY EFFECT LtK", "setting": "[1]", "result": "* (*0.01 < ρ ≦ 0.05)"},
      {"measurement": "MODULATORY EFFECT CHO", "setting": "[3]", "result": "*** (***ρ ≦ 0.001)"}
    ]},
    {"substance": "29 (RFVRGDRNHFDCGEL) [compound 29]", "values": [
      {"measurement": "MODULATORY EFFECT", "setting": "human NGF receptor", "result": "*** (*** ρ ≦ 0.001)"},
      {"measurement": "DIRECT EFFECT", "setting": "human NGF receptor", "result": "* (* 0.01 < ρ ≦ 0.05)"}
    ]},
    {"substance": "4 (ERNKLNYKNKNKYIL) [compound 4]", "values": [
      {"measurement": "MODULATORY EFFECT LtK", "setting": "[1]", "result": "*** (***ρ ≦ 0.001)"}
    ]},
    {"substance": "1 (SHQRWEYKGVNCIVY) [compound 1]", "values": [
      {"measurement": "MODULATORY EFFECT LtK", "setting": "[1]", "result": "*** (***ρ ≦ 0.001)"},
      {"measurement": "DIRECT EFFECT LtK", "setting": "[1]", "result": "*** (***ρ ≦ 0.001)"},
      {"measurement": "MODULATORY EFFECT CHO", "setting": "[3]", "result": "*** (***ρ ≦ 0.001)"},
      {"measurement": "DIRECT EFFECT CHO", "setting": "[3]", "result": "*** (***ρ ≦ 0.001)"}
    ]},
    {"substance": "26 (DFVDGAAGRLHKGEY) [compound 26]", "values": [
      {"measurement": "MODULATORY EFFECT", "setting": "human NGF receptor", "result": "** (** 0.001 < ρ ≦ 0.01)"}
    ]},
    {"substance": "LHGKEIDTAETAKID [SEQ ID NO:97]", "values": [
      {"measurement": "effect on EAR response to NGF", "setting": "human NGF receptor", "result": "also down-regulated the EAR response of PC-12 cells to NGF, to an extent comparable"}
    ]},
    {"substance": "27 (DIKATEATDIEKGHL) [compound 27]", "values": [
      {"measurement": "MODULATORY EFFECT", "setting": "human NGF receptor", "result": "*** (*** ρ ≦ 0.001)"}
    ]},
    {"substance": "28 (RFVDNDATDIEKGRI) [compound 28]", "values": [
      {"measurement": "MODULATORY EFFECT", "setting": "human NGF receptor", "result": "*** (*** ρ ≦ 0.001)"},
      {"measurement": "DIRECT EFFECT", "setting": "human NGF receptor", "result": "* (* 0.01 < ρ ≦ 0.05)"}
    ]},
    {"substance": "13 (FSFQCKSINYEALGY) [compound 13]", "values": [
      {"measurement": "DIRECT EFFECT", "setting": "[2]; significance class of effect on EAR", "result": "** (** 0.001 < ρ ≦ 0.01)"},
      {"measurement": "MODULATORY EFFECT", "setting": "[2]", "result": "** (** 0.001 < ρ ≦ 0.01)"}
    ]},
    {"substance": "3 (ERNRKPYRPKNKYLL) [compound 3]", "values": [
      {"measurement": "MODULATORY EFFECT LtK", "setting": "[1]", "result": "*** (***ρ ≦ 0.001)"}
    ]},
    {"substance": "15 (ITFTVKGLTLAAFTY) [compound 15]", "values": [
      {"measurement": "MODULATORY EFFECT", "setting": "[2]", "result": "*** (*** ρ ≦ 0.001)"}
    ]},
    {"substance": "24 (RFVASAATEIEVNRL) [compound 24]", "values": [
      {"measurement": "MODULATORY EFFECT", "setting": "human NGF receptor", "result": "** (** 0.001 < ρ ≦ 0.01)"}
    ]},
    {"substance": "30 (HFVRNERTHFDVSAL) [compound 30]", "values": [
      {"measurement": "MODULATORY EFFECT", "setting": "human NGF receptor", "result": "* (* 0.01 < ρ ≦ 0.05)"},
      {"measurement": "DIRECT EFFECT", "setting": "human NGF receptor", "result": "* (* 0.01 < ρ ≦ 0.05)"}
    ]},
    {"substance": "14 (FSFGVKSWQYHALGY) [compound 14]", "values": [
      {"measurement": "MODULATORY EFFECT", "setting": "[2]", "result": "* (* 0.01 < ρ ≦ 0.05)"}
    ]},
    {"substance": "H-THQAFHYCNKQCLVI-OH (cysteine pairing not given here) [SEQ ID NO:2]", "values": [
      {"measurement": "influence on dopamine-induced increment in total milli-pH units (EAR response to dopamine)", "setting": "[1]", "result": "did not significantly potentiate"},
      {"measurement": "ρ of one-tailed t-test paired within chamber, peptide influence on EAR response to dopamine", "setting": "[1]", "result": "> 0.05"},
      {"measurement": "influence on dopamine-induced increment in total milli-pH units (EAR response to dopamine)", "setting": "[3]; [4]", "result": "did not significantly potentiate"}
    ]},
    {"substance": "17 (FNLSVKQWNYRAYNL) [compound 17]", "values": [
      {"measurement": "MODULATORY EFFECT", "setting": "[2]", "result": "** (** 0.001 < ρ ≦ 0.01)"}
    ]}
  ]
}
